This note sets out measurements from patent US7897364.

Where a chain is given by its changes, count along the chain named.

Data set [1] deals with T1, agrin-C45.
T1 chain: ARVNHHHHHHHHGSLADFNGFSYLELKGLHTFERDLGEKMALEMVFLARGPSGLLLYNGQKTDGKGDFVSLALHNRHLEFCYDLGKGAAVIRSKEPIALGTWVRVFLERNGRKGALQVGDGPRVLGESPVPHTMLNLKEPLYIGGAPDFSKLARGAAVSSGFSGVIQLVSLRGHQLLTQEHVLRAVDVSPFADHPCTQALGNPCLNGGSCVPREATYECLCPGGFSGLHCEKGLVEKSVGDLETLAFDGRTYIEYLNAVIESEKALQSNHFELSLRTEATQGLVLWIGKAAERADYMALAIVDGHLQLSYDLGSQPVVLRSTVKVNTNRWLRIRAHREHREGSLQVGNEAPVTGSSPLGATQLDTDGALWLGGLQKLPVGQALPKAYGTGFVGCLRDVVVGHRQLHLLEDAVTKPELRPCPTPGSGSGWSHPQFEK

In data set [2] the target is agrin-EGFP.
In data set [3] the target is agrin (endogenous, in mouse spinal cord and brain), A2ASQ1.
Data set [4] concerns the target rat agrin, transmembrane isoform containing the splice variants Y4 and Z8, P25304.

Chain of rat agrin, transmembrane isoform containing the splice variants Y4 and Z8, P25304 (P25304 whole entry, looked up, change not shown, canonical isoform): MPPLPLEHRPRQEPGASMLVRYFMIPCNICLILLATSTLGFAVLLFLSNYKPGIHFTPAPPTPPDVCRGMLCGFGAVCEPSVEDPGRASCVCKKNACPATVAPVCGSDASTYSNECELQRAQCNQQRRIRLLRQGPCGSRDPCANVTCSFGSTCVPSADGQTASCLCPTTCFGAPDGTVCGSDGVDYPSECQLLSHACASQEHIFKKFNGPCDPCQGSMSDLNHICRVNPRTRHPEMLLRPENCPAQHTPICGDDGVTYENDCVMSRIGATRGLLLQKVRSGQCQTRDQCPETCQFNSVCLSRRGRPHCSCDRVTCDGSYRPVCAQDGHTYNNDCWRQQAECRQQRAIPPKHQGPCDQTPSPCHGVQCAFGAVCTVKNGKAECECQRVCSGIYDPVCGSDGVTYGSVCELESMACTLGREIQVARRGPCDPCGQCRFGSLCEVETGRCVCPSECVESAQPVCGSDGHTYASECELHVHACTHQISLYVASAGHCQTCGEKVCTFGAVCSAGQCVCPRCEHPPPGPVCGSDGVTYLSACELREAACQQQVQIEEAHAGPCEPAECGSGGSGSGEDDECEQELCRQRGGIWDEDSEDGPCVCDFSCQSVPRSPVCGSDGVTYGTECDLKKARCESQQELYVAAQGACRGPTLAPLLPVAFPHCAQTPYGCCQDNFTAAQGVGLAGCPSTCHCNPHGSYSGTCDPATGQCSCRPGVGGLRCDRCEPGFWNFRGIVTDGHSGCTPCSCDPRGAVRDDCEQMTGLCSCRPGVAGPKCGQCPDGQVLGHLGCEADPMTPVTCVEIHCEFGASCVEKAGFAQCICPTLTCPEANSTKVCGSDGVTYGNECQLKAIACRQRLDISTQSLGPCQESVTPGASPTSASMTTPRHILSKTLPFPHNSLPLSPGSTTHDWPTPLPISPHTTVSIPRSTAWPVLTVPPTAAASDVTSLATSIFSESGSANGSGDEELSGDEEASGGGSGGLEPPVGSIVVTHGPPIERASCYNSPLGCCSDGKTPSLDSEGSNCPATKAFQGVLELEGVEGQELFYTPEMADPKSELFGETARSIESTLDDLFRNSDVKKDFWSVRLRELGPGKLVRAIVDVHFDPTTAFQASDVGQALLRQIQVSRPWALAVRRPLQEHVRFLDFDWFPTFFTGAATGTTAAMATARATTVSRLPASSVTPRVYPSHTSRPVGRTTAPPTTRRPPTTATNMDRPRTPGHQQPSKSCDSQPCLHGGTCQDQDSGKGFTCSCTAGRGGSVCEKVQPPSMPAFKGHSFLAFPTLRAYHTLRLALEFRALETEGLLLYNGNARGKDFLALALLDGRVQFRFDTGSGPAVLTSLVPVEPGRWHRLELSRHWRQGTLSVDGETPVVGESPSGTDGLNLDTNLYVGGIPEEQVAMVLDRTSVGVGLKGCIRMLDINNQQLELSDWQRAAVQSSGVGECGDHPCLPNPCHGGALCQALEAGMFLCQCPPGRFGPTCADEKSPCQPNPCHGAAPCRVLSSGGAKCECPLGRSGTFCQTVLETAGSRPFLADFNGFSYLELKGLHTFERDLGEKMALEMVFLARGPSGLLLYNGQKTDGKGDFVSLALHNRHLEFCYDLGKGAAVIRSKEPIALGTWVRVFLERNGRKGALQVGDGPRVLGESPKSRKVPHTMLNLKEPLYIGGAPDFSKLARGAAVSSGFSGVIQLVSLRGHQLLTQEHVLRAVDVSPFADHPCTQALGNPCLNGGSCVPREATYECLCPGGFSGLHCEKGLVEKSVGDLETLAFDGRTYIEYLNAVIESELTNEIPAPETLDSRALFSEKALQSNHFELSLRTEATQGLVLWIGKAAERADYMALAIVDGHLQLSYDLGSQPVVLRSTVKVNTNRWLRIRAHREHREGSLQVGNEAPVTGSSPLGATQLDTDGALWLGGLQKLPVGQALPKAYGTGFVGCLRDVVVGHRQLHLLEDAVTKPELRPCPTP
Chain of agrin (endogenous, in mouse spinal cord and brain), A2ASQ1 (A2ASQ1 whole entry, canonical isoform): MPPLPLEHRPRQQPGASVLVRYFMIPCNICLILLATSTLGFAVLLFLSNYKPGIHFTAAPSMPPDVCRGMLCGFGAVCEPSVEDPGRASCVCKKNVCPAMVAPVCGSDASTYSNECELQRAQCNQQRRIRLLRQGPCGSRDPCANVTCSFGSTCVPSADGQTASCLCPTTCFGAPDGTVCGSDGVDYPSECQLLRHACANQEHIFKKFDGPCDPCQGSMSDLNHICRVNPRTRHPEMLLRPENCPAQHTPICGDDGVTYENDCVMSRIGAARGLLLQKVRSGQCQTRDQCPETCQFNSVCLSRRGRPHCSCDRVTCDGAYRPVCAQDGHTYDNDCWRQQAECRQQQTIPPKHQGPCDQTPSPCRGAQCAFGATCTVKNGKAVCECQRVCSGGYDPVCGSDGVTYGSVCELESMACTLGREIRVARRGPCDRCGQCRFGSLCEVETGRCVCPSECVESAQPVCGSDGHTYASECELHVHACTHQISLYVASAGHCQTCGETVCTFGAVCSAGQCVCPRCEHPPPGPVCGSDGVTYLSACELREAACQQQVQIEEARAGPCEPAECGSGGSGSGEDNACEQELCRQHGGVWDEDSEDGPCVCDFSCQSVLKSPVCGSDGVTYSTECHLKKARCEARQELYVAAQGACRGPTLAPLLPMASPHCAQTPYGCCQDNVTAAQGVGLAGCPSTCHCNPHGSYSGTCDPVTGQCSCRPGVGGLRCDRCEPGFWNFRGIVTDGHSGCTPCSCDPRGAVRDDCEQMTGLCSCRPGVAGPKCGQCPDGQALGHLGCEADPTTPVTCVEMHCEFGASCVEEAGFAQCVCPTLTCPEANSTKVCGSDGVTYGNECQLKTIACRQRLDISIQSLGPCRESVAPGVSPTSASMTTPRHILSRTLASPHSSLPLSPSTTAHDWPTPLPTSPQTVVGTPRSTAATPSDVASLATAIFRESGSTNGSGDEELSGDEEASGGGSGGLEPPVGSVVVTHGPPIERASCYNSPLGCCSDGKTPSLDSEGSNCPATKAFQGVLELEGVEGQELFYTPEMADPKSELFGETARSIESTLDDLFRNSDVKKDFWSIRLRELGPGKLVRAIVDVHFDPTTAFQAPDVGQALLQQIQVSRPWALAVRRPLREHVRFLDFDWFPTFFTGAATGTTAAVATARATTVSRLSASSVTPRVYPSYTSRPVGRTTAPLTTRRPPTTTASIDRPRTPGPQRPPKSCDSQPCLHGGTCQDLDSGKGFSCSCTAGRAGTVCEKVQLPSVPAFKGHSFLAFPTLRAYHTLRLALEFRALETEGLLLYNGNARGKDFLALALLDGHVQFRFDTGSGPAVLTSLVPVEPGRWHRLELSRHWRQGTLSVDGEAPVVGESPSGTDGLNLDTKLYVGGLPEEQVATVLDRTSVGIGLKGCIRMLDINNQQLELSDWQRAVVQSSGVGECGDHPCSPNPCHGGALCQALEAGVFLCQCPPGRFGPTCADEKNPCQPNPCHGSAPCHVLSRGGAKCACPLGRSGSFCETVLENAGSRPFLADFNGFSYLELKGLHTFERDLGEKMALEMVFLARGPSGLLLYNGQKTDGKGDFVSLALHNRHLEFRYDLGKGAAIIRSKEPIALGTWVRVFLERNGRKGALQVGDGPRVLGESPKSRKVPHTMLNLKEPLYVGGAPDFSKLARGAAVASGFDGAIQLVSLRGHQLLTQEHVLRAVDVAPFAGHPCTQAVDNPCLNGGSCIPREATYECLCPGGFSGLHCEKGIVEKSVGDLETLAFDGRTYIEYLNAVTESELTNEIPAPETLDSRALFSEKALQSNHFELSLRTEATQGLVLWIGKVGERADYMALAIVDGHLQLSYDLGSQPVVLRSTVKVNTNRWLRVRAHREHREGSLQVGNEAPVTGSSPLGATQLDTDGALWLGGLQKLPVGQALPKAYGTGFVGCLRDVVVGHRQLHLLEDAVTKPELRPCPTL

B1: human neurotrypsin (protein)
chain: FDSVLNDSLHHSHRHSPPAGPHYPYYLPTQQRPPRTRPPPPLPRFPRPPRALPAQRPHALQAGHTPRPHPWGCPAGEPWVSVTDFGAPCLRWAEVPPFLERSPPASWAQLRGQRHNFCRSPDGAGRPWCFYGDARGKVDWGYCDCRHGSVRLRGGKNEFEGTVEVYASGVWGTVCSSHWDDSDASVICHQLQLGGKGIAKQTPFSGLGLIPIYWSNVRCRGDEENILLCEKDIWQGGVCPQKMAAAVTCSFSHGPTFPIIRLAGGSSVHEGRVELYHAGQWGTVCDDQWDDADAEVICRQLGLSGIAKAWHQAYFGEGSGPVMLDEVRCTGNELSIEQCPKSSWGEHNCGHKEDAGVSCTPLTDGVIRLAGGKGSHEGRLEVYYRGQWGTVCDDGWTELNTYVVCRQLGFKYGKQASANHFEESTGPIWLDDVSCSGKETRFLQCSRRQWGRHDCSHREDVSIACYPGGEGHRLSLGFPVRLMDGENKKEGRVEVFINGQWGTICDDGWTDKDAAVICRQLGYKGPARARTMAYFGEGKGPIHVDNVKCTGNERSLADCIKQDIGRHNCRHSEDAGVICDYFGKKASGNSNKESLSSVCGLRLLHRRQKRIIGGKNSLRGGWPWQVSLRLKSSHGDGRLLCGATLLSSCWVLTAAHCFKRYGNSTRSYAVRVGDYHTLVPEEFEEEIGVQQIVIHREYRPDRSDYDIALVRLQGPEEQCARFSSHVLPACLPLWRERPQKTASNCYITGWGDTGRAYSRTLQQAAIPLLPKRFCEERYKGRFTGRMLCAGNLHEHKRVDSCQGDSGGPLMCERPGESWVVYGVTSWGYGCGVKDSPGVYTKVSAFVPWIKSVTKL
With B1, the “cleavage of purified agrin-C45 by purified neurotrypsin (silver stained SDS-PAGE)” value in data set [1] is “The cleavage products agrin-C45 are found between 20 and 25 kDa”. Further, the “cleavage of purified agrin-EGFP by purified neurotrypsin (SDS-PAGE, Western blot)” value in data set [2] was “Lane 2 shows the agrin-EGFP (indicated by arrow marked Ag-EGPF) and the C-terminal fragment of approximately 150 kDa generated by neurotrypsin activity”.

B2: mouse neurotrypsin (protein)
chain: DPVSRSPLHRPHPSPPRSQHAHYLPSSRRPPRTPRFPLPLRIPAAQRPQVLSTGHTPPTIPRRCGAGESWGNATNLGVPCLHWDEVPPFLERSPPASWAELRGQPHNFCRSPDGSGRPWCFYRNAQGKVDWGYCDCGQGPALPVIRLVGGNSGHEGRVELYHAGQWGTICDDQWDNADADVICRQLGLSGIAKAWHQAHFGEGSGPILLDEVRCTGNELSIEQCPKSSWGEHNCGHKEDAGVSCVPLTDGVIRLAGGKSTHEGRLEVYYKGQWGTVCDDGWTEMNTYVACRLLGFKYGKQSSVNHFDGSNRPIWLDDVSCSGKEVSFIQCSRRQWGRHDCSHREDVGLTCYPDSDGHRLSPGFPIRLVDGENKKEGRVEVFVNGQWGTICDDGWTDKHAAVICRQLGYKGPARARTMAYFGEGKGPIHMDNVKCTGNEKALADCVKQDIGRHNCRHSEDAGVICDYLEKKASSSGNKEMLSSGCGLRLLHRRQKRIIGGNNSLRGAWPWQASLRLRSAHGDGRLLCGATLLSSCWVLTAAHCFKRYGNNSRSYAVRVGDYHTLVPEEFEQEIGVQQIVIHRNYRPDRSDYDIALVRLQGPGEQCARLSTHVLPACLPLWRERPQKTASNCHITGWGDTGRAYSRTLQQAAVPLLPKRFCKERYKGLFTGRMLCAGNLQEDNRVDSCQGDSGGPLMCEKPDESWVVYGVTSWGYGCGVKDTPGVYTRVPAFVPWIKSVTSL
Turning to B2, the “temporal pattern of the C-terminal 100-kDa agrin fragment and of neurotrypsin in mouse spinal cord (Western blot)” value in data set [3] is reported as “Western blotting with antibodies versus the C-terminal moiety of agrin revealed a highly similar temporal pattern”. Also, the “150 kDa C-terminal fragment of agrin-EGFP (Western blot)” value in data set [2] is “Western blot detection of the 150 kDa C-terminal fragment of agrin (Ag-CF) generated by neurotrypsin-mediated cleavage of agrin-EGFP”. Further, in data set [4], the “release of a 100-kDa agrin fragment into the culture medium (Western blot)” value is recorded as “In 200 µl culture medium of double transfected HEK293T cells a 100-kDa band was detected with the anti-agrin antibody”.

B3: catalytically inactive neurotrypsin (Neurotrypsin Ser711Ala) (protein)
chain: B2 chain with S690A
With B3, the “release of a 100-kDa agrin fragment into the culture medium (Western blot)” value in data set [4] was “no signal was detected in medium of HEK293T cells transfected with agrin and catalytically inactive neurotrypsin”.
